B1: Disks large-associated protein 1 (Rattus norvegicus (Rat)), P97836-5 (parent)
chain: MIDLFKAEWVSSVCVQVSRNGRTDQVWVPQDEWTGYTPRGKDDEIPCRRMRSGSYIKAMGDEDSGDSDTSPKPSPKVAARRESYLKATQPSLTELTTLKISNEHSPKLQIRSHSYLRAVSEVSINRSLDSLDPAGLLTSPKFRSRNESYMRAMSTISQVSEMEVNGQFESVCESVFSELESQAVEALDLPMPGCFRMRSHSYVRAIEKGCSQDDECVSLRSSSPPRTTTTVRTIQSSTGVIKLSSAVEAQSSTESAQDAYMDGQGQRGDMISQSGLSNSTESLDSMKALTAAIEAANAQIHGPASQHMGSNAAAVTTTTTIATVTTEDRKKDFKKNRCLSIGIQVDDAEESEKMAESKTSSKFQSVGVQVEEEKCFRRFTRSNSVTTAVQADLDFHDNLENSLESIEDNSCPGPMARQFSRDASTSTVSIQGSGNHYHACAADDDFDTDFDPSILPPPDPWIDSITEDPLEAVQRSVCHRDGHWFLKLLQAERDRMEGWCKQMEREERENNLPEDILGKIRTAVGSAQLLMAQKFYQFRELCEENLNPNAHPRPTSQDLAGFWDMLQLSIENISMKFDELHQLKANNWKQMDPLDKKERRAPPPVPKKPAKGPAPLIRERSLESSQRQEARKRLMAAKRAASVRQNSATESAESIEIYIPEAQTRL

Variants of: B1
Conditions: with Shank1, Q9WV48-4
Sequence of Shank1, Q9WV48-4 (Q9WV48 other isoform, or with tags, fused parts or gaps): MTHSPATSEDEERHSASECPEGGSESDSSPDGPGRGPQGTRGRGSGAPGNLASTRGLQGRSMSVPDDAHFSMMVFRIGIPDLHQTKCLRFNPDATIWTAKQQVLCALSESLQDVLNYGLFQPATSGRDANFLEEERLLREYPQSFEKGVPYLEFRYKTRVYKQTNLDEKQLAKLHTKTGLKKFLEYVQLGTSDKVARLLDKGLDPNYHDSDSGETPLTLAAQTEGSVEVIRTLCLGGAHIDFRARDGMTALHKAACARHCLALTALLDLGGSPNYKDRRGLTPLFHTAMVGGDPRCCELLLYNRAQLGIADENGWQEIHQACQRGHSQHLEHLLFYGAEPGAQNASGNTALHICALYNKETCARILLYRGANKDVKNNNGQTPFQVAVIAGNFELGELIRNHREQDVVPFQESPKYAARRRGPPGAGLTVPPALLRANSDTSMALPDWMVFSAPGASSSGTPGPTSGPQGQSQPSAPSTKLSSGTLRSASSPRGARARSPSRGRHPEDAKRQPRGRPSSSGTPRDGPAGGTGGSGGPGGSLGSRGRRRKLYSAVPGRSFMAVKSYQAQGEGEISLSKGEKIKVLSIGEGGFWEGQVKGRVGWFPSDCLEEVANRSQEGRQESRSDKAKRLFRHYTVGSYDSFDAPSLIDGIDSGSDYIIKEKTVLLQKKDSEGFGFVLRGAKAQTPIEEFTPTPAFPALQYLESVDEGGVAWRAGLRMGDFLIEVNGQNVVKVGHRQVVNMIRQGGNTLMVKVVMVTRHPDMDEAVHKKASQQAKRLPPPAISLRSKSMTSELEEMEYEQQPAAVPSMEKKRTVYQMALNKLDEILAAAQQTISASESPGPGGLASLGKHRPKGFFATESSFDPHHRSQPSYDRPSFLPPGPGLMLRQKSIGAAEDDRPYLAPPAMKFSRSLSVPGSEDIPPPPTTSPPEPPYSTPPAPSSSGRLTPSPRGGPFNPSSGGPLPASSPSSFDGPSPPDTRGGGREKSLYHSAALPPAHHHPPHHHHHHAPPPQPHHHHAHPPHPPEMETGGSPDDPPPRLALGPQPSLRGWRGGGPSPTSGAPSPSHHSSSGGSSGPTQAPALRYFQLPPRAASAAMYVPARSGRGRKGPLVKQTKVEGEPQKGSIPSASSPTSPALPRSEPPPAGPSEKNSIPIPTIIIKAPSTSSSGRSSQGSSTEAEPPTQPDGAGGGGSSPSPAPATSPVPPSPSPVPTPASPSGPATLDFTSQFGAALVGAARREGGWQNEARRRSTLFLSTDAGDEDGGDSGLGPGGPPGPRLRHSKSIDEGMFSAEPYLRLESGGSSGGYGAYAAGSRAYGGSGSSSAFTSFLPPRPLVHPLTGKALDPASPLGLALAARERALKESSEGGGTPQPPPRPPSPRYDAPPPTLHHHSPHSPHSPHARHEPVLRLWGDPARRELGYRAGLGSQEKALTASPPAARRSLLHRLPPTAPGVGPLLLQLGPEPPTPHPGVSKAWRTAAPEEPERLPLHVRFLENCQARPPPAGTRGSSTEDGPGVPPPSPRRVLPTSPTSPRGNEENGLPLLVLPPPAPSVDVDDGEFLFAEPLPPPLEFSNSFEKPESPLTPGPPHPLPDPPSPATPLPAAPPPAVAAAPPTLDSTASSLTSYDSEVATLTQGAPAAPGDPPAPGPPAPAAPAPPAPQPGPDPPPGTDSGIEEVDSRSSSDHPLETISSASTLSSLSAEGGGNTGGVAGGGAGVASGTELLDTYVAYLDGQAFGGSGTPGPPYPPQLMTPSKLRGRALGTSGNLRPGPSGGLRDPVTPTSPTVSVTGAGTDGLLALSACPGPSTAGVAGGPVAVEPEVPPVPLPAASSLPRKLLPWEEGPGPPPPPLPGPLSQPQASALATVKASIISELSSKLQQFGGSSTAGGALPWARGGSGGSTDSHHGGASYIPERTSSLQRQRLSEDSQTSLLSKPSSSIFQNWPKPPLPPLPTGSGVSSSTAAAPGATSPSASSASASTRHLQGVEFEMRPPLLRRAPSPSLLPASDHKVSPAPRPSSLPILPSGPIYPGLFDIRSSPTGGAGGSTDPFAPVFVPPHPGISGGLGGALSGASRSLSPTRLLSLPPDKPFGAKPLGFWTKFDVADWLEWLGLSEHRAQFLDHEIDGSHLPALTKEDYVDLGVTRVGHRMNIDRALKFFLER

Row | Variant | effect of a mutation on the interaction
1 | R665D | decreasing interaction
2 | T664S | decreasing interaction
3 | T664A | disrupting interaction
4 | L666A | disrupting interaction
5 | L666V | decreasing interaction
